This is an account of results in article PMC8518580.

What is called Kd is a measure of binding affinity in units of concentration.

Conditions in all cases: EMSA: LightShift REMSA kit, 30 min, 25 °C, 5% native PAGE (buffer not given); MST: Monolith NT.115, RED-labelled NbeEF1A, labelling in PBS, temperature not …
A general note: In EMSA bound probe runs differently from free probe, usually more slowly.

Data set [1] has as its system NbeEF1A (eEF1A) (Nicotiana benthamiana). The data set is described as follows: MST.
For data set [2] the test system is unchanged. Description: MST. This is another data set of the same source.
For data set [3] the test system is unchanged. Description: EMSA.

As for RNA2 3'-UTR dSL-5 (del3532-3535), the Kd in data set [1] amounted to 0.036 µM.

Regarding RNA2 3'-UTR dSL-1 (del3419-3429), the Kd in data set [1] stood at 0.117 µM.

In the case of RNA2 3'-UTR del3174-3406, the Kd in data set [2] turned out to be 0.0685 µM.

For the substance RNA2 3'-UTR dSL-6 (del3561-3565), in data set [1], the Kd was 0.998 µM. Also, the binding signal (% of WT 3'-UTR) in data set [3] is 6.

Turning to RNA2 3'-UTR del3407-3569, the Kd in data set [2] turned out to be 0.997 µM.

In the case of RNA1 3'-UTR del6988-7147, in data set [2], the Kd worked out at 0.964 µM.

Take RNA1 3'-UTR del6730-6987: the Kd in data set [2] came out at 0.0677 µM.

On to CWMV RNA2 (+) 3'-UTR, for which the Kd amounted to 0.0125 µM in data set [2] and 0.00651 µM in data set [1].

As for CWMV RNA1 (+) 3'-UTR, in data set [2], the Kd came out at 0.00732 µM.

Take RNA2 3'-UTR dSL-4 (del3505-3509): the Kd in data set [1] was determined as 0.113 µM.

For the substance RNA2 3'-UTR dSL-2 (del3469-3471), the Kd in data set [1] came to 0.0917 µM.

As for RNA2 3'-UTR dSL-3 (del3500-3503), in data set [1], the Kd came to 0.0335 µM.
